Assay results: patent US20110008344A1 (THOMAS JEFFERSON UNIVERSITY, published 2011)
Read-outs that look alike come from different tables or passages of the source.

What was measured:
[1] = target: T1, recombinant 50 kD C-terminal BoNT/A domain (HC50A) (Clostridium botulinum, UniProt P0DPI1 861-1296); assay: KinExA Direct Kinetics method, […]; KinExA, solution phase
[2] = target: T1, recombinant 50 kD C-terminal BoNT/A …
[3] = target: T1, recombinant 50 kD C-terminal BoNT/A …; assay: SPR (Biacore 3000), 13A immobilized on CM5 chip, HC50A as analyte
[4] = target: T1, recombinant 50 kD C-terminal BoNT/A …; assay: KinExA, solution phase

B1: botulinum neurotoxin 13A antibody (human monoclonal antibody produced by hybridoma 13A, ATCC PTA-8871) (antibody, V domains shown)
VH: EVQLVESGGGLVQPGRSLRLSCTASGFTFGDSAMSWVRQAPGKGLEWVGFIRGKPYGGKPEYAASVKGRFTISRDDSKSIAYLQMNSLKTEDTAVYYCTAGMTTVTIYDYWGQGTLVTVSS
VL: QPLSVSVALGQTAGITCEGNNIGSKNVHWYQQKPGQAPVLVIYRDSNRPSGIPERFSGFNSGNTATLTISRVQAGDEADYYCQVWDSSTGVFGGGTELTVLG
kon [1]: 7.2e+06 M⁻¹ s⁻¹ | Kd [2]: 52 pM | kon [3]: 1.7e+07 M⁻¹ s⁻¹ | Kd [4]: 97 pM
